{"source": "paper PMC12483203", "target": "Hu-1 G614 S-6P homotrimer (SARS-CoV-2 Wuhan-Hu-1 D614G spike ectodomain, hexaproline-stabilised) (SARS-CoV-2) (UniProt P0DTC2)", "test": "SEC", "data": [{"substance": "Hu-1 G614 S-6P homotrimer (SARS-CoV-2 Wuhan-Hu-1 D614G spike ectodomain, hexaproline-stabilised) (from UniProt P0DTC2 14-1211) (natural protein)", "values": [{"measurement": "stoichiometry N", "result": 3}]}]}
